This data set deals with C57BL/6J mice. To be noted: mouse, in vivo.

B1: OVA-PEG: OVA conjugated to PEG via urethane linkage (conjugate, UniProt P01012 2-386, looked up)
Ovalbumin: GSIGAASMEFCFDVFKELKVHHANENIFYCPIAIMSALAMVYLGAKDSTRTQINKVVRFDKLPGFGDSIEAQCGTSVNVHSSLRDILNQITKPNDVYSFSLASRLYAEERYPILPEYLQCVKELYRGGLEPINFQTAADQARELINSWVESQTNGIIRNVLQPSSVDSQTAMVLVNAIVFKGLWEKAFKDEDTQAMPFRVTEQESKPVQMMYQIGLFRVASMASEKMKILELPFASGTMSMLVLLPDEVSGLEQLESIINFEKLTEWTSSNVMEERKIKVYLPRMKMEEKYNLTSVLMAMGITDVFSSSANLSGISSAESLKISQAVHAAHAEINEAGREVVGSAEAGVDAASVSEEFRADHPFLFCIKHIATNAVLFFGRCVSP
modifications: PEG 10K conjugate
On to B1, for which the “PEG-specific IgM titer relative to Ex-PEG” value is listed as ~ 60 fold; the “anti-OVA IgG titer” value was “lower titers of anti-OVA IgG than unmodified OVA”; the “magnification of anti-OVA and anti-PEG responses by CFA/IFA emulsions” value was ~ 2 fold.

The record behind these values is article PMC10918641 (Biomaterials, 2023).
